According to the supplement of paper PMC11136658:

System: peptide library, one residue held at a place counted from the Y acceptor
Assay: relative phosphorylation of the sub-library (ratio to the mean residue at this position); higher = residue favoured
In short: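 Purified recombinant kinases were incubated for 90 min in 384-well plates with biotinylated Tyr-centred peptide library mixtures, each fixing one residue at one position from −5 to +5, plus 50 μM ATP with γ-32P-ATP. Peptides were captured on streptavidin membranes, rinsed and quantified by phosphorimaging and ImageQuant. Intensities were normalized per position by the sum of the 18 (or 16, Ser/Thr-free library) randomized residues and multiplied by that number. Values give phosphorylation relative to the mean randomized residue.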

EPHA1, construct: aa568-end, human, sequence (P21709 568-976, looked up): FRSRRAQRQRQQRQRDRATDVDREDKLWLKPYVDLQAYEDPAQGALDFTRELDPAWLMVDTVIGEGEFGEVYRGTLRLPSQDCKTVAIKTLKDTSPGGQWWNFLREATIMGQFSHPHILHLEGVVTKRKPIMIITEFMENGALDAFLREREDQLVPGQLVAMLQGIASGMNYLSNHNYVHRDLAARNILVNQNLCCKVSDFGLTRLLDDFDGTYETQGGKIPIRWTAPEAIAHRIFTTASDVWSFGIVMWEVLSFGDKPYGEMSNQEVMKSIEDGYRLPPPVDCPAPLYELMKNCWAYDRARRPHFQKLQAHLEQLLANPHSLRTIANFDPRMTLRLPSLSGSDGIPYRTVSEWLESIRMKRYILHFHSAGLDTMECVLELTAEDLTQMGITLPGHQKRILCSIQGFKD
EPHB1, construct: aa613-881, human, sequence (P54762 613-881, looked up): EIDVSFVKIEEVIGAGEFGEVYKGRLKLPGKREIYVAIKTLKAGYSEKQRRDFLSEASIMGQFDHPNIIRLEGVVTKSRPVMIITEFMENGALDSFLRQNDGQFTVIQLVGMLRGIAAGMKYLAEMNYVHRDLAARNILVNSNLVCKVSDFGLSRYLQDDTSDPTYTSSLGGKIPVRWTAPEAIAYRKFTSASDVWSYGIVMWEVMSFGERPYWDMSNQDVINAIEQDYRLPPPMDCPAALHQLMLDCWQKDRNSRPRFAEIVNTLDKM

EPHA1, construct: aa568-end, human (from UniProt P21709)
relative phosphorylation
Conditions	at +1	at +2	at +3	at +4	at +5	at -1	at -2	at -3	at -4	at -5
A fixed	1.63	0.704	0.7	0.747	1.08	0.615	1.22	0.904	1.25	1.1
D fixed	0.645	0.963	0.21	0.562	0.699	0.705	0.891	1.06	0.864	0.752
E fixed	1.87	1.03	0.191	0.665	0.616	0.52	1.04	1.18	1.11	0.59
F fixed	0.853	1.68	1.4	1.27	1.17	1.37	0.531	1.16	0.936	1.1
G fixed	0.729	0.307	0.486	1.21	1.21	0.23	1.38	1.07	1.47	1.26
H fixed	0.604	0.912	0.877	1.38	0.987	0.87	1.03	1.18	0.919	0.917
I fixed	1.41	0.997	2.57	0.732	0.92	2.74	0.716	0.784	0.853	0.941
K fixed	0.292	0.642	0.319	0.931	1.12	0.381	1	0.801	0.993	1.12
L fixed	1.15	1.18	2.29	0.816	0.955	2.38	0.789	0.803	1	1.07
M fixed	1.88	1.21	1.5	1.26	0.966	1.11	0.633	0.926	0.948	0.968
N fixed	0.276	1.17	0.385	0.726	0.773	1	1.11	1.16	0.852	0.937
P fixed	0.157	0.521	1.26	1.19	1.57	0.445	1.29	0.929	1.13	1.17
Q fixed	1.11	0.792	0.679	0.86	0.807	0.433	1.05	0.77	0.95	0.914
R fixed	0.477	1.06	0.696	1.47	1.13	0.587	1.36	1.07	1.23	1.26
S fixed	0.799	0.697	0.488	0.739	1	0.391	1.46	1.03	0.868	0.86
T fixed	0.823	0.867	0.576	0.813	0.9	1.19	0.845	0.917	0.666	0.725
V fixed	1.93	0.974	2.03	0.73	0.853	1.43	0.821	0.78	0.827	0.913
W fixed	1.36	2.3	1.36	1.89	1.24	1.61	0.821	1.48	1.14	1.4
pThr fixed	0.981	1.05	0.17	0.4	0.508	1.39	0.685	0.721	0.608	0.558
pTyr fixed	1.87	2.54	0.57	0.629	0.727	0.904	0.81	0.888	0.88	0.684

EPHB1, construct: aa613-881, human (from UniProt P54762)
relative phosphorylation
Conditions	at +1	at +2	at +3	at +4	at +5	at -1	at -2	at -3	at -4	at -5
A fixed	1.86	0.98	0.818	0.902	1.1	0.664	1.16	0.857	0.999	0.906
D fixed	0.907	1.01	0.511	1.08	1.13	2.22	1.09	1.22	1.23	1.15
E fixed	2.33	1.18	0.427	1.04	1.06	1.2	1.27	1.34	1.26	1.01
F fixed	0.676	1.14	1.37	1.06	1.13	1.19	0.677	1.31	1.19	1.07
G fixed	0.571	0.414	0.575	1.03	1.05	0.223	1.23	0.898	1.15	0.979
H fixed	0.566	0.769	1.39	1.18	0.938	0.762	0.888	1.05	0.872	0.934
I fixed	1.67	1.36	2.18	0.773	0.815	2.09	0.872	0.944	0.907	0.956
K fixed	0.212	0.585	0.29	0.744	0.784	0.264	0.946	0.631	0.931	1.05
L fixed	0.823	1.04	1.37	0.828	1.08	1.95	0.914	1.02	1.07	1.11
M fixed	1.48	0.935	1.19	1.07	1.01	0.95	0.689	0.874	0.872	0.926
N fixed	0.383	0.951	0.731	0.806	0.856	1.81	1.05	1.03	0.844	1.13
P fixed	0.195	0.858	0.899	1.29	1.49	0.436	1.33	1.2	1.21	0.947
Q fixed	1.22	0.982	0.849	1.07	0.94	0.423	1.13	0.835	1.19	1.13
R fixed	0.252	0.768	0.419	0.835	0.782	0.29	0.905	0.672	0.9	1.01
S fixed	0.934	0.981	0.691	0.94	0.972	0.519	1.3	0.923	0.722	0.841
T fixed	0.868	1.02	0.848	0.939	0.938	0.968	0.917	0.844	0.667	0.757
V fixed	1.83	1.56	1.95	0.911	0.876	1.24	0.912	0.928	0.854	0.949
W fixed	1.22	1.45	1.49	1.5	1.05	0.811	0.714	1.42	1.14	1.15
pThr fixed	1.9	1.95	0.439	1.03	0.655	1.58	0.851	0.856	0.945	1.02
pTyr fixed	1.56	3.38	0.718	1.1	0.883	1.69	0.936	1.13	1.12	1.25
